# Measured values: patent US20240352105A1, “COMPOSITIONS AND METHODS FOR NEUTRALIZING ANTIGENS” (PACAGEN, INC, priority 2023, published 2024)
# Where “and” joins values, the source holds several entries; their conditions need not be identical. Identical values can stand only once.
# B1: Der p2-His: recombinant His-tagged dust mite allergen Der p2 (protein)
# chain: DQVDVKDCANHEIKKVLVPGCHGSEPCIIHRGKPFQLEAVFEANQNTKTAKIEIKASIDGLEVDVPGIDPNACHYMKCPLVKGQQYDIKYTWNVPKIAPKSENVVVTVKVMGDDGVLACAIATHAKIRD
# modifications: left off: small tags and cut ends
# B2: SDAB22112-1-D12 (VHH)
# VHH: AVQLVDSGGGLVQAGGSLRLACAASGRTFDTYAVGWFRQAPGKERDVVASITWTSGSTWYADFVKGRFTISKDNAKNTVYLQMNNLSPEDTAVYYCGARNQIYTRWDSWGQGTQVTVSS
# notes: anti-Can f1 alpaca VHH
# B3: SDAB22112-2-D08 (VHH)
# VHH: QVKLEESGGGLVQAGGSLRLSCVASGRTFSRWHTGWYRQAPGREREFVATLRASGGDTYYADSVKGRFTISRDNAKNTVYLQMNSLKPEDTAVYYCNVWANWGAPPSDFSSWGQGTQVTVSS
# notes: anti-Can f1 alpaca VHH
# B4: SDAB22129-55-35-46-49-1-B12 (VHH)
# VHH: QVQLVESGGGLVQAGGPLRLSCAASGRTFSSYAMGWFRQAPGKEREFVAAISWSGDSTYYADSVKGRFTLSRDNAKNTVYLQMNSLKPEDTAVYYCAVPSSGRGTYYYTLSAYEYWGQGTQVTVFS
# notes: Expressed from a prokaryotic vector
# B5: SDAB22129-55-35-46-49-1-B02 (VHH)
# VHH: QLQLVESGGGLVQSGGSLRLSCVAKGGTNHPYPIGWFRQAPGKEQEGVLCIASGGQTQDSAHNPNWADSVKGRFTISRDDATHTVYLEMNNLKADDTAVYFCAAPREIYIDSRCATYKYEYWGQGTQVTVSP
# notes: as for B4
# B6: Can f2-His: recombinant His-tagged dog allergen Can f2 (protein)
# chain: QEGNHEEPQGGLEELSGRWHSVALASNKSDLIKPWGHFRVFIHSMSAKDGNLHGDILIPQDGQCEKVSLTAFKTATSNKFDLEYWGHNDLYLAEVDPKSYLILYMINQYNDDTSLVAHLMVRDLSRQQDFLPAFESVCEDIGLHKDQIVVLSDDDRCQGSRD
# modifications: left off: small tags and cut ends
# B7: SDAB22129-55-35-46-49-1-D01 (VHH)
# VHH: QVQLVESGGGLVQAGGSLRLSCAASGRTFSRYAMGWFRQAPGKEREFVAAITGSGSRTYYADSIQGRFTISRDNAKNTVYLQMNSLKPEDTAVYYCVQGWAEATMTSLGEDYDYWGQGTQVTVSS
# notes: as for B4
# B8: SDAB22112-1-B6-B05 (VHH)
# VHH: QLQLVESGGGLVQPGGSLRLSCAASRSIFSSYVMAWYRRAPGKKRELVASIANVGSNTDYASFAKGRFTISRDDDKSRDNDKITVYLQMNSLNPEDTAVYYCNAWLGAGSDYWGQGTQVTVSS
# notes: anti-Can f1 alpaca VHH
# B9: SDAB22112-1-C9 (VHH)
# VHH: QLQLVESGGGLVQPGGSLRLSCVGSGFTFSLASMGWYRQAPGKEREWVASISSLDASTNYADSVKGRFTISRDNAKRMVYLQMNNLKSEDTAVYYCKAMNYWGKGTQVTVSS
# notes: anti-Can f1 alpaca VHH
# B10: SDAB22112-1-C10 (VHH)
# VHH: QLQLVESGGGLVQPGGSLRLSCAASGFTFSSYSMSWYRQAPGKERELVATIDTDGRTNYADSVKGRFTISRDNAKNSVYLQMNSLKPEDTAVYYCNRRQLGVDYWGQGTQVTVSS
# notes: anti-Can f1 alpaca VHH
# B11: SDAB22112-1-D12-3 (VHH)
# VHH: QVQLVESGGGLVQPGGSLRLSCAASGFTFSNYGMSWVRQAPGKGLEWVSDVNSSGSRRFYVDSVKGRFTISRDNAKNTVFLQMNSLKPEDSAVYYCVKLAEAGTLIHVGSWGQGTRVTVSS
# notes: anti-Can f1 alpaca VHH
# B12: SDAB22112-2-B06 (VHH)
# VHH: QVQLVESGGGLVQPGGSLRLSCAASGFTFRLAAMGWYRQAPEKEREWVASITGPGTDTNYADSVKGRFTVSRDNAKNTVYLQMNSLKPEDTAVYYCRGMGYWGKGTLVTVSS
# notes: anti-Can f1 alpaca VHH
# Assays:
# [1] = tested on: biotinylated anti-His antibody; experiment: Recombinant Can f1-His ELISA binding assay
# Experimental: (§1) In order to obtain single variable domain on heavy chain, i.e., VHH, specific for dog allergen Can f1, a recombinant His-tagged Can f1 was prepared, which reached high purity, as shown via SDS-Page Western blotting in FIG. 4. To confirm this, an ELISA was performed measuring optical density when the recombinant Can f1-His is incubated with a biotinylated anti-His antibody. As summarized in Table 4, the recombinant Can f1-His was effectively bound by the antibody.
# [2] = tested on: known Der p2 antibody (clone 6OY4); experiment: Recombinant Der p2-His ELISA binding assay
# Experimental: In order to obtain single variable domain on heavy chain, i.e., VHH, specific for dust mite allergen Der p2, a recombinant His-tagged Der p2 was prepared, which reached high purity, as shown via SDS-Page Western blotting in FIG. 2. To confirm this, an ELISA was performed. Briefly, the Der p2-HIS was coated onto an ELISA plate and a known Der p2 antibody (clone 6OY4) was added. A secondary detection antibody capable of binding to the Der p2 antibody was then added. The secondary detection antibody was conjugated to a horseradish peroxidase, which can be utilized to produce a colorimetric reaction. Then, optical density was measured. As summarized in Table 1, the recombinant Der p2-His was effectively bound by the antibody.
# [3] = target: T1, recombinant His-tagged Can f1 (dog (Canis familiaris), UniProt O18873 19-174); experiment: ELISA, antigen coated
# T1 construct: also called Can f1-His; recombinant Can f1; not shown: His tag
# Experimental: (§2) 2 microgram per milliliter (μg/mL) target antigen is coated in a 96-well plate and ELISA assay is performed after incubation with candidate VHHs. The binding EC50 of each clone is calculated using Prism GraphPad. The positive control antibody is involved as an internal control.
# (§3) Isolated VHH clones were further validated by performing an ELISA assay as described in Example 1. Metrics of thermostability including melting temperature (Tₘ), onset temperature (Tₒₙₛₑₜ), and temperature of aggregation (Tagg), were also tested with increasing temperature in the range of 20° C.-95° C. at the speed of 1° C./min. The individual binding curves are shown for each candidate in FIGS. 5B-5H.
# [4] = Thermostability (Tm, Tonset, Tagg) by Nanotemper DSF; assay type: physicochemical; parameters: key to Tm2 / Tagg / Tm1 / Tm / Tm3 / Tonset / Tonset ø (mean) / Tagg ø (mean): temperatures in °C; conditions: anti-Can f1 VHH; for Tagg: 20° C.-95° C. at 1° C./min
# Experimental: as §3, with “(Tm),” for “(Tₘ),”, “(Tonset),” for “(Tₒₙₛₑₜ),”, “C./min. These measurements were performed using a Nanotemper DSF. When applicable, Tm1 refers to the first melting point observed, Tm2 refers to the second melting point observed, etc., Sequence information for the VHH clones and the binding assay results are summarized in Table 3.” for “C./min.”, “3B-3I.” for “5B-5H.”
# as §3, with “(Tm),” for “(Tₘ),”, “(Tonset),” for “(Tₒₙₛₑₜ),”
# as §3, with “(Tm),” for “(Tₘ),”, “(Tonset),” for “(Tₒₙₛₑₜ),”, “7B-7P.” for “5B-5H.”
# The detailed thermostability graphs used to determine the Tm, Tonset, and Tagg are illustrated in FIGS. 19A-19I and raw data is summarized in Table 23. Any subsequent melting points observed (Tm1, Tm2, Tm3, etc.) are separated by commas.
# [5] = target: T2, recombinant His-tagged Der p1 (dust mite, UniProt P08176 99-320, limits assumed); experiment: cell-based or functional assay
# T2 sequence (looked up): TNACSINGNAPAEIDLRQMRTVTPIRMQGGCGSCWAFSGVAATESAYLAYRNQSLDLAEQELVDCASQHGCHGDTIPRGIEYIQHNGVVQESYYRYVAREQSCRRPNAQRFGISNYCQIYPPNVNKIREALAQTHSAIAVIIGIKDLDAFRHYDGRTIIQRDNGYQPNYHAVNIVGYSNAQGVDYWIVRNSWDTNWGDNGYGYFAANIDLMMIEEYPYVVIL
# [6] = target: T2, recombinant His-tagged Der p1; experiment: ELISA, antigen coated on plate
# Experimental: as §2
# Isolated VHH clones were further validated by performing an ELISA assay as described in Example 1. The individual binding curves are shown for each candidate in FIGS. 9A-9K.
# [7] = tested on: biotinylated anti-His antibody; experiment: Recombinant Can f2-His ELISA binding assay
# Experimental: as §1, with “f2,” for “f1,”, “f2” for “f1”, “6.” for “4.”, “f2-His” for “f1-His”, “7,” for “4,”
# T1 sequence (O18873 19-174 limits assumed): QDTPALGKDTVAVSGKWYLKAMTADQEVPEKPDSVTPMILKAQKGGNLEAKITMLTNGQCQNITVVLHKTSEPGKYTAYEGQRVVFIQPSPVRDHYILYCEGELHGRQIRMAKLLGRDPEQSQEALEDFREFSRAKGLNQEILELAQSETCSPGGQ
molecule,measurement,setting,value
Can f1-His: recombinant His-tagged dog allergen Can f1,OD at 450 nm,[1]; Can f1-His Concentration 0.00064 μg/mL,0.07 and 0.11
same,OD at 450 nm,[1]; Can f1-His Concentration 0.0032 μg/mL,0.09 and 0.11
same,OD at 450 nm,[1]; Can f1-His Concentration 0.016 μg/mL,0.09 and 0.12
same,OD at 450 nm,[1]; Can f1-His Concentration 0.08 μg/mL,0.15 and 0.16
same,OD at 450 nm,[1]; Can f1-His Concentration 0.4 μg/mL,0.21 and 0.24
same,OD at 450 nm,[1]; Can f1-His Concentration 2 μg/mL,0.95 and 1.03
same,OD at 450 nm,[1]; Can f1-His Concentration 10 μg/mL,2.84 and 2.92
B1,OD at 450 nm,[2]; Der p2-His Concentration 0.00064 μg/mL,0.07 and 0.09
same,OD at 450 nm,[2]; Der p2-His Concentration 0.0032 μg/mL,0.09 and 0.10
same,OD at 450 nm,[2]; Der p2-His Concentration 0.016 μg/mL,0.11 and 0.12
same,OD at 450 nm,[2]; Der p2-His Concentration 0.08 μg/mL,0.38 and 0.35
same,OD at 450 nm,[2]; Der p2-His Concentration 0.4 μg/mL,1.31 and 1.37
same,OD at 450 nm,[2]; Der p2-His Concentration 2 μg/mL,4.06 and 4.02
same,OD at 450 nm,[2]; Der p2-His Concentration 10 μg/mL,4.61 and 4.57
B2,EC50,[3],4.01 µg/mL
same,Tagg,[4],49.15
same,Tm,"[4]; single melting point, in °C (unit assumed)",57.78
B3,EC50,[3],5.84 µg/mL
B4,Maximum Rate of Blocking,[5],95.4
same,EC50,[6],1.77 µg/mL
B5,Maximum Rate of Blocking,[5],75.4
same,EC50,[6],0.0193 µg/mL
B6,OD at 450 nm,[7]; Can f2-His Concentration 0.00064 μg/mL,0.10 and 0.11
same,OD at 450 nm,[7]; Can f2-His Concentration 0.0032 μg/mL,0.11
same,OD at 450 nm,[7]; Can f2-His Concentration 0.016 μg/mL,0.10 and 0.11
same,OD at 450 nm,[7]; Can f2-His Concentration 0.08 μg/mL,0.12 and 0.13
same,OD at 450 nm,[7]; Can f2-His Concentration 0.4 μg/mL,0.22 and 0.19
same,OD at 450 nm,[7]; Can f2-His Concentration 2 μg/mL,0.57 and 0.65
same,OD at 450 nm,[7]; Can f2-His Concentration 10 μg/mL,1.12 and 1.07
B7,Maximum Rate of Blocking,[5],73
same,EC50,[6],0.0147 µg/mL
B8,EC50,[3],8.42 µg/mL
B9,EC50,[3],13.1 µg/mL
B10,EC50,[3],9.4 µg/mL
B11,EC50,[3],10.4 µg/mL
B12,EC50,[3],0.144 µg/mL
same,Tagg,[4],48.00
same,Tm1,"[4]; first melting point, in °C (unit assumed)",56.38
same,Tm2,"[4]; second melting point, in °C (unit assumed)",63.74
same,Tm3,"[4]; third melting point, in °C (unit assumed)",70.13
